In patent US6831161B1, “Method of affinity separation and ligands for use therein” (Affibody AB, priority 1998, dated 2004):

Assays:
HSA [1] = molecular target: T1, HSA (Homo sapiens, UniProt P02768); test: Binding characteristics (BIAcore) before and after treatment with 0.5 M NaOH for 24 hours; details: room temperature, 800 nM on BIAcore, FIG. 5
Experimental: In order to examine the stability of ABDwt and ABDmut, the binding characteristics were analysed before and after treatment with 0.5 M NaOH in room temperature for 24 hours. Both ABDwt and ABDmut were solubilized in 1×HBS (10 mM HEPES, pH 7.4, 150 mM NaCl, 3.4 mM EDTA, 0.005% P20) to a concentration of 800 nM and analyzed on BIAcore 2000 (Biacore AB, Uppsala, Sweden). In order to determine the activity change after exposure to a very alkaline environment, the proteins were solubilized in 0.5 M NaOH. After incubation in NaOH for 24 hours, the samples were run through a NAP-10 column (Amersham Pharmacia Biotech, Uppsala, Sweden) equilibrated with 30 mM NH4Ac. The protein containing samples were lyophilized and resolubilised in 1×HBS to a concentration of 800 nM in order to be analyzed in the BIAcore 2000.
(§1) A BIAcore 2000 instrument (Biacore AB) was used for real time affinity analysis. HSA and IgG were immobilized on two different surfaces of a CM5 sensor chip by amine coupling to the carboxylated dextran layer. This coupling was done according to the manufacturer's recommendation (Biacore AB). The IgG surface was used as a control. The samples were run through a 0.45 μm filter and injected over the surface in a random order at a flow rate of […].

HSA [2] = molecular target: T1, HSA; type: binding; details: for Kaff (affinity constant, ratio between Kon and Koff): BIAcore 2000, HSA immobilized on CM5 chip
From the text: as §1
Also, an analysis of the kinetic parameters was performed for the proteins that still remained active. This was done by analysing the binding behaviour in different concentrations and thereafter calculating the binding constants by using BIAevaluation 2.1 software (BIAcore AB). The concentrations used were 40-220 nM for ABDwt, 200-600 nM for ABDmut and 800-1250 nM for the NaOH treated ABDmut.

HSA [3] = molecular target: T1, HSA; test: Alkaline resistance of affinity columns: HSA capacity after repeated 0.5 M NaOH washes; details: ligand on Sepharose 4B; 15 cycles of 0.5 M NaOH wash, total exposure over 6 hours; FIG. 6
Experimental: In order to evaluate the usability of the stabilized HSA-binding protein in biotechnology, two affinity chromatography matrices were prepared; one with the unmutated protein (ABDwt) as a control and the other with the mutated ABD (ABDmut). The matrix used was Sepharose 4B (Amersham Pharmacia Biotech, Uppsala, Sweden) with carbodiimide CMC (Sigma Aldrich, Sweden) as the coupling reagent. ABDwt (4.5 mg) and ABDmut (8.5 mg) were dissolved in 9 ml water separately. 3.5 and 5.0 ml gel was added to ABDwt and ABDmut solutions respectively. Finally 0.38 g of CMC was added to the solutions and they were incubated at room temperature over night. The gels were packed on HR columns (d=5 mm, h=43 mm) and pulsed with 0.5 M ethanolamine, 0.5 M NaCl, pH 8.3 in order to inactivate the matrix and 0.1 M NaAc, 0.5 M NaCl, pH 4 in order to wash unbounded proteins out. After this, the columns were ready to use for affinity purification of HSA.
In order to explore the difference between the ABDwt column and the ABDmut column in respect of stability against alkaline treatment, both columns were repeatedly washed with 0.5 M NaOH. By using the AKTA explorer the columns were loaded with HSA, the protein was eluted by lowering the pH (Stahl et al., (1989) supra) and finally both columns were washed with NaOH. […] The flow rate used was 60 cm/h and the eluted material was collected and analyzed in each round. […]

HSA [4] = molecular target: T1, HSA; test: HSA-binding analysis of ABDmut triple mutants on BIAcore; details: 200 nM, 20 μl/min, immobilised HSA on CM5 chip, FIG. 7
From the text: ABDmut22-25-26, ABDmut29-30-33, and ABDmut54-57-58 proteins were produced and purified as described in Example 2. In order to analyse the binding behaviour of the different triple-mutants a BI core 2000 instrument was used. HSA was immobilised on a sensor chip surface of a CM5 sensor chip by amine coupling to the carboxylated dextran layer. As control, a sensor chip surface containing IgG was used. This coupling was done according to the manufacturers recommendation (Biacore AB). The samples of the three proteins were run through a 0.45 μm filter and injected over the surface in a random order at a flow rate of 20 μl/min. The concentration used was 200 nM and all samples were analysed three times. […] In addition, residue 62 could also be used for substitutions.

Row | Molecule | Kaff (affinity constant, ratio between Kon and Koff) (HSA [2]) | Ability to bind HSA (sensorgrams) (HSA [4]) | Affinity towards HSA after exposure to alkaline solution (HSA [1]) | Koff (dissociation rate) (HSA [2]) | Kon (rate at which the proteins associate) (HSA [2]) | Column activity (HSA capacity) against NaOH exposure time (HSA [3])
1 | ABDmut29-30-33: ABDmut domain containing alanine substitutions at positions 29, 30 and 33 (protein) MKAIFVLNAQHDEAVDANSLAEAKVLALAALDAYGVSDYYKDLIDKAKTVEGVKALIDEILAALP | – | retain their ability to bind HSA | – | – | – | –
2 | ABDmut22-25-26: ABDmut domain containing alanine substitutions at positions 22, 25 and 26 (protein) MKAIFVLNAQHDEAVDANSLAAAKAAALRELDKYGVSDYYKDLIDKAKTVEGVKALIDEILAALP | – | retain their ability to bind HSA | – | – | – | –

Continued, in another order:

Row | Kaff (affinity constant, ratio between Kon and Koff) (HSA [2]) | Ability to bind HSA (sensorgrams) (HSA [4]) | Molecule | Affinity towards HSA after exposure to alkaline solution (HSA [1]) | Koff (dissociation rate) (HSA [2]) | Kon (rate at which the proteins associate) (HSA [2]) | Column activity (HSA capacity) against NaOH exposure time (HSA [3])
3 | 1.5 × 10^7 l/M | – | ABDmut: ABD with Asn28 replaced by leucine, Asn42 by aspartic acid, Asn45 by aspartic acid and Asn46 by lysine (protein) MKAIFVLNAQHDEAVDANSLAEAKVLALRELDKYGVSDYYKDLIDKAKTVEGVKALIDEILAALP | has the affinity preserved | 0.0012 L/s | 1.8 × 10^4 l/Ms | keeping the activity throughout the experiment
4 | – | retain their ability to bind HSA | ABDmut54-57-58: ABDmut domain containing alanine substitutions at positions 54, 57 and 58 (protein) MKAIFVLNAQHDEAVDANSLAEAKVLALRELDKYGVSDYYKDLIDKAKTVEGVAALAAEILAALP | – | – | – | –
5 | 6.9 × 10^7 l/M | – | ABDwt: Wild type Albumin Binding Protein domain from Streptococcus G148 with affinity towards human serum albumin; four asparagine residues (protein) MKAIFVLNAQHDEAVDANSLAEAKVLANRELDKYGVSDYYKNLINNAKTVEGVKALIDEILAALP | loses the affinity towards HSA | 0.0013 L/s | 9.0 × 10^4 l/Ms | –
